The text below walks through data of patent publication US20120316071A1 (published 2012).

Where a chain is given by its changes, count along the chain named. Names may count otherwise.

The target of test [1] is T1, Recombinant Human DLL4 (R&D Systems Cat#1506-D4/CF) (human, UniProt Q9NR61 27-524).
T1 construct: Bought protein (R&D Systems Cat#1506-D4/CF), immobilised on the MSD plate; also called delta-like protein 4; rHuman DLL4
The experiment in a line: ECL (MSD) multispot binding assay, DLL4 immobilised, Fab in solution.

The target of test [2] is T2, rHuman CD44/Fc Chimera, CF (human, UniProt P16070 21-220).
T2 construct: Bought from R&D Systems; not shown: Fc of the bought chimera
Briefly: ECL Multispot (MSD) assay; antigen spotted on plate, Fab in solution.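 Note: fab bound 1 h at 20 °C, detected by TAG-labelled antibody electrochemiluminescence, signal relative to each well's blank, ratio of 4 or more marks a hit.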

Test [3] deals with T3, Recombinant Human DLL4 (human, UniProt Q9NR61 27-524).
T3 construct: Bought from R&D Systems; also called delta-like protein 4; rHuman DLL4
The description is as above.

Test [4] has as its target T4, rHuman IGF-1 sR, (IGF-1 sR), CF (human, UniProt P08069 31-932).
T4 construct: Bought from R&D Systems; also called insulin-like growth factor-1 soluble receptor
The description is as above.

Test [5] has as its target T5, rHuman HGF R/c-MET/Fc Chimera, CF (human, UniProt P08581 25-932).
T5 construct: Bought from R&D Systems; also called HGF R/Fc; hepatocyte growth factor receptor; not shown: Fc of the bought chimera
Described as above.

Test [6] has as its target T6, rHuman ErbB2/Fc Chimera, CF (human, UniProt P04626 23-652).
T6 construct: Bought from R&D Systems; also called human epidermal growth factor 2 receptor; not shown: Fc of the bought chimera
The test is described as above.

Test [7] has as its target T7, rHuman Erythropoietin R/Fc Chimera, CF (human, UniProt P19235 25-250).
T7 construct: Bought from R&D Systems; also called EPO R; EPO R/Fc; not shown: Fc of the bought chimera
T7 sequence (looked up): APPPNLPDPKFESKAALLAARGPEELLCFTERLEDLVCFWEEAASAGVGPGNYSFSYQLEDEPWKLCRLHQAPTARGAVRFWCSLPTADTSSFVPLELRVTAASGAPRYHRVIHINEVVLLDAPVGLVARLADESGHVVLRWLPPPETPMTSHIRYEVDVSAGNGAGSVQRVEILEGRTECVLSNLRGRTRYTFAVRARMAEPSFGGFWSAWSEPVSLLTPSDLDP
Described as above.

For test [8], the target named is T8, rHuman EGF R/Fc Chimera, CF (human, UniProt P00533 25-645).
T8 construct: Bought from R&D Systems; also called epidermal growth factor receptor; not shown: Fc of the bought chimera
The test is described as above.

Test [9] has as its target T9, rHuman Notch-1/Fc Chimera, CF (human, UniProt P46531 19-526).
T9 construct: Bought from R&D Systems; not shown: Fc of the bought chimera
The description is as above.

Test [10] addresses T10, rHuman HGF R/c-MET/Fc Chimera, CF (R&D Systems Cat#358-MT/CF) (human, UniProt P08581 25-932).
T10 construct: Bought recombinant protein; also called HGF R/Fc; hepatocyte growth factor receptor
Briefly: ECL multispot (MSD) binding assay, antigen spotted on plate.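 Note: purified Fab incubated 1 h at 20 °C on antigen spots, detected with TAG-labelled antibody, electrochemiluminescence compared with each well's blank, signal-to-blank ratio ≥4 counted as hit.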

The target of test [11] is T11, rHuman P-Cadherin/Fc Chimera, CF (R&D Systems Cat#861-PC) (human, UniProt P22223 108-654).
T11 construct: Bought recombinant protein
The description is as above.

Test [12] concerns the target T12, rHuman CD44/Fc Chimera, CF (R&D Systems Cat#3660-CD) (human, UniProt P16070 21-220).
T12 construct: Bought recombinant protein
Described as above.

The target of test [13] is T13, rHuman ErbB2/Fc Chimera, CF (R&D Systems Cat#1129-ER) (human, UniProt P04626 23-652).
T13 construct: Bought recombinant protein; also called human epidermal growth factor 2 receptor
Described as above.

In test [14] the target is T14, rHuman EGF R/Fc Chimera, CF (R&D Systems Cat#344-ER) (human, UniProt P00533 25-645).
T14 construct: Bought recombinant protein; also called epidermal growth factor receptor
The description is as above.

In test [15] the target is T15, rHuman IGF-1 sR, (IGF-1 sR), CF (R&D Systems Cat#391-GR) (human, UniProt P08069 31-932).
T15 construct: Bought recombinant soluble receptor; also called insulin-like growth factor-1 soluble receptor
The test is described as above.

In test [16] the target is T16, Recombinant Human DLL4 (R&D Systems Cat#1506-D4/CF) (human, UniProt Q9NR61 27-524).
T16 construct: Bought recombinant protein; also called delta-like protein 4; rHuman DLL4
The test is described as above.

The target of test [17] is T17, rHuman Notch-1/Fc Chimera, CF (R&D Systems Cat#3647-TK) (human, UniProt P46531 19-526).
T17 construct: Bought recombinant protein
The test is described as above.

In test [18] the target is T18, Recombinant Human DLL4 (delta-like protein 4) (human, UniProt Q9NR61 27-529).
T18 construct: Bought recombinant human DLL4 (R&D Systems Cat#1506-D4/CF); also called rHuman DLL4; Delta-like 4
Briefly: 96-well plate ECL binding assay, DLL4 immobilised, Fab in solution.

Test [19] addresses T18, Recombinant Human DLL4 (delta-like …). Briefly: ELISA, DLL4 coated on plate, Fab in solution, absorbance at 450 nm. Background: ELISA stands for enzyme-linked immunosorbent assay.

T10 sequence (P08581 25-932, change not shown): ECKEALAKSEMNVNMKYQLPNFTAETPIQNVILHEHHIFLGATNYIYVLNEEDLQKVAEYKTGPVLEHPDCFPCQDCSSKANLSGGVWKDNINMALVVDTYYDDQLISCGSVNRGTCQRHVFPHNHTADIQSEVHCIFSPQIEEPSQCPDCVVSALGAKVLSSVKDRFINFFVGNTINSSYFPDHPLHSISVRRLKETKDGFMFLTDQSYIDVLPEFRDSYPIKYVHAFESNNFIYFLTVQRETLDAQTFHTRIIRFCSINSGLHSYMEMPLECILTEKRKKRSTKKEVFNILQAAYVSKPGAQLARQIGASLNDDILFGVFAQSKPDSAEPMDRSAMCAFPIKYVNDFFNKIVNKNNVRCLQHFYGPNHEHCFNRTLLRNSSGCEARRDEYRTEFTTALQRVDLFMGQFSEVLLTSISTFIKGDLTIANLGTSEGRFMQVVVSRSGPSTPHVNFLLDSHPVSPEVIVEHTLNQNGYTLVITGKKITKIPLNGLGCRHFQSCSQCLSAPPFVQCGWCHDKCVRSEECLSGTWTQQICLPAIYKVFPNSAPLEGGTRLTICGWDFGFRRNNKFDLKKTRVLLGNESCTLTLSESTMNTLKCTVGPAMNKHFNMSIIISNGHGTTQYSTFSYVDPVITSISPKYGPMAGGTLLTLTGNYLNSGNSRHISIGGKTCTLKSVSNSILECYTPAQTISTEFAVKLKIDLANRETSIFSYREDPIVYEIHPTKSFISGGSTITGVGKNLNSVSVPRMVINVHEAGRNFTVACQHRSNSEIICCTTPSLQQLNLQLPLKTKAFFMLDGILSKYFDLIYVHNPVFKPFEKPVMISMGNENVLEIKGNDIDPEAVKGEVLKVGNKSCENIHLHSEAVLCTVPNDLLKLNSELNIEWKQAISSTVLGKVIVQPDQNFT
T5 sequence (P08581 25-932, change not shown): as above

B1: Fab VH1-46_IGHD6-6*01_IGHJ1*01 S102A/S103P/S104F (APF) & L6_IGKJ1*01 R91P (Fab, V domains shown)
VH: QVQLVQSGAEVKKPGASVKVSCKASGYTFTSYYMHWVRQAPGQGLEWMGIINPSGGSTSYAQKFQGRVTMTRDTSTSTVYMELSSLRSEDTAVYYCAREEYAPFSAEYFQHWGQGTLVTVSS
VL: EIVLTQSPATLSLSPGERATLSCRASQSVSSYLAWYQQKPGQAPRLLIYDASNRATGIPARFSGSGSGTDFTLTISSLEPEDFAVYYCQQPSNWPPWTFGQGTKVEIKR
notes: Fab with CH1 plus His6/Flag tags and kappa CL from the expression plasmids; also called APF & R91P
As to B1, in test [1], the “ECL signal” value came out at 1280 and the Signal/Blank was determined as 4.7.

B2: Fab VH1-46_IGHD6-6*01_IGHJ1*01 S102A/S103P/S104F/H111F (APFF) & L6_IGKJ1*01 S28T (Fab, V domains shown)
VH: B1 VH with H111F
VL: B1 VL with S28T, P91R
notes: Fab made in E. coli; the variable domains were cloned into Plasmid A (CH1, His and Flag tags) and Plasmid C (kappa CL); also called APFF / S28T
With B2, the ECL signal in [2] came to 368; in test [3] it was 159000; in test [4] it was 355; in test [5], 371; in test [6] it was 271; in test [7], 380. Also, the results for the ECL signal in [8] and in [9] were 321 and 249, respectively.

B3: Fab VH1-46_IGHD6-6*01_IGHJ1*01 S102A/S103P/S104F/H111F (APFF) & L6_IGKJ1*01 S31A (Fab, V domains shown)
VH: B1 VH with H111F
VL: B1 VL with S31A, P91R
notes: Tested as Fab (CH1 with His6/Flag tags, kappa CL) made in E. coli; also called APFF / S31A
Turning to B3, the ECL signal in [10] was found to be 309; in test [11], 361; in [12], 406; in test [13], 383; in [14], 415; in [15], 334. Further, the ECL signal in test [16] worked out at 192000; in [17], 424.

B4: Fab VH1-46_IGHD6-6*01_IGHJ1*01 S102A/S103P/S104F/H111F (APFF) & L6_IGKJ1*01 N93Y (Fab, V domains shown)
VH: B1 VH with H111F
VL: B1 VL with P91R, N93Y
notes: Fab with CH1 plus His6/Flag tags and kappa CL from the expression plasmids; also called APFF & N93Y
In the case of B4, in test [1], the “ECL signal” value is 1380.

B5: Fab VH1-46_IGHD6-6*01_IGHJ1*01 S102A/S103P/S104F/H111F (APFF) & L6_IGKJ1*01 N93Q (Fab, V domains shown)
VH: B1 VH with H111F
VL: B1 VL with P91R, N93Q
notes: Fab with CH1 plus His6/Flag tags and kappa CL from the expression plasmids; also called APFF & N93Q
Take B5: in test [1], the “ECL signal” value turned out to be 704.

B6: Fab VH1-46_IGHD6-6*01_IGHJ1*01 S102A/S103P/S104F/H111F (APFF) & L6_IGKJ1*01 N93S (Fab, V domains shown)
VH: B1 VH with H111F
VL: B1 VL with P91R, N93S
notes: Fab with CH1 plus His6/Flag tags and kappa CL from the expression plasmids; also called APFF & N93S
Regarding B6, in test [1], the “ECL signal” value amounted to 6440.

B7: Fab VH1-46_IGHD6-6*01_IGHJ1*01 S102A/S103P/S104F/H111F & L6_IGKJ1*01 S28N/S30D/S31H N53H (Fab, V domains shown)
VH: B1 VH with H111F
VL: B1 VL with S28N, S30D, S31H, N53H, P91R
notes: Fab with CH1 (plasmid A, His6 and Flag tags) and kappa CL (plasmid C); also called H:APFF & L:NDH N53H
Regarding B7, in [18], the “ECL signal” value turned out to be 20100. The “ELISA (Avgerage signal-noise)” value in [19] is 0.23.

B8: Fab VH1-46_IGHD6-6*01_IGHJ1*01 S102A/S103P/S104F/H111F & L6_IGKJ1*01 S28N/S30D/S31H N53G (Fab, V domains shown)
VH: B1 VH with H111F
VL: B1 VL with S28N, S30D, S31H, N53G, P91R
notes: Fab with CH1 (plasmid A, His6 and Flag tags) and kappa CL (plasmid C); also called H:APFF & L:NDH N53G
As to B8, the “ECL signal” value in test [18] was 20600. For the same molecule, the “ELISA (Avgerage signal-noise)” value in test [19] came out at 0.163.
